Experimental findings from US20220362394A1 (SUTRO BIOPHARMA, published 2022) are described below.

Assay [1] addresses T1, cyno BCMA-Fc (cynomolgus monkey, UniProt Q02223 1-54 (human entry)).
T1 construct: Custom protein production; also called cynomolgus BCMA-Fc; not shown: Fc part not described
Briefly: ELISA, coated cynoBCMA-Fc. On the technique in general: ELISA stands for enzyme-linked immunosorbent assay.

Assay [2] concerns the target T2, human BCMA-Fc (human, UniProt Q02223 1-54).
T2 construct: Bought from R&D Systems; also called huBCMA-Fc; not shown: Fc part not described
T2 sequence: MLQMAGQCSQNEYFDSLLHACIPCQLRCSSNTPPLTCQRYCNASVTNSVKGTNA
Briefly: ELISA, coated huBCMA-Fc.

Assay [3] has as its target T3, human BCMA on cells (human, UniProt Q02223 1-184).
T3 construct: also called hBCMA; BCMA on NCI-H929, ARP-1, OPM-2, U266B1, MM.1S, RPMI-8226 cells
T3 sequence: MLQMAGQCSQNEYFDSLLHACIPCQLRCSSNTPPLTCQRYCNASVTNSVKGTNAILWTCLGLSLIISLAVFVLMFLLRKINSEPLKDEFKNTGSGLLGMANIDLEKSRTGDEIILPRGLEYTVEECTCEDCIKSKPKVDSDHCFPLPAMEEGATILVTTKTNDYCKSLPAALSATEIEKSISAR
Briefly: FACS, NCI-H929 cells. How it is done: (§1) Variants for which sufficient protein was purified in secondary screening were tested in a fluorescence-activated cell sorting (FACS) cell-binding assay. […] 6-12 point dilutions of anti-BCMA variants starting from concentrations of about 100-200 nM antibody were dispensed into each well using a BioMekFX (Beckman Coulter). Cells were then incubated on ice for 1 hr, washed with FACS buffer and incubated for 1 hr on ice with […] FACS buffer containing 2.5 μg/ml Alexa647-conjugated Goat Anti-Human IgG dispensed using BioMekFX (Beckman Coulter). Cells were then washed 2× with FACS buffer and fixed for 10 minutes in […] PBS with 2% paraformaldehyde (PFA) prior to fluorescence detection. Samples were acquired using a Beckton Dickinson LSRII FACS. Geometric Mean Fluorescence Intensity of BCMA antibody binding was analyzed using FlowJo® software (Tree Star, Inc.).

Assay [4] addresses cynomolgus BCMA on cells (cynomolgus monkey, UniProt Q02223 1-184 (human entry)). Briefly: FACS, 293T-cynoBCMA cells. On the procedure:
as §1
Background: Flow cytometry measures light scatter and fluorescence of single cells or particles in a stream.

The target of assay [5] is T2, human BCMA-Fc. Briefly: SPR Biacore, antibody captured, 25 C. On the procedure:
Anti-Fab or anti-Fc polyclonal antibodies were immobilized onto a CM5 chip (GE Life Sciences) using amine coupling chemistry (from Amine Coupling Kit, GE Life Sciences). The immobilization steps were carried out at a flow rate of 25 μL/min in 1×HBS-EP+ buffer (GE Life Sciences; 10× Stock diluted before use). The sensor surfaces were activated for 7 min with a mixture of NHS (0.05 M) and EDC (0.2 M). The anti-Fab or anti-Fc antibodies were injected over all 4 flow cells at a concentration of 25 μg/ml in 10 mM sodium acetate, pH 4.5, for 7 min. Ethanolamine (1 M, pH 8.5) was injected for 7 min to block any remaining activated groups.
Off-rate and kinetic binding experiments were performed at 25° C. using 1×HBS-EP+ buffer. […] After capturing ligand (antibody) on the anti-Fab or anti-Fc surface, the analyte (human BCMA-Fc, cyno BCMA-Fc, or human BCMA from R&D Systems, custom protein production, or Sigma Aldrich, respectively) was bound for 180 seconds, followed by a 600 second dissociation phase at a flow rate of 50 μL/min. Between each ligand capture and analyte binding cycle, regeneration was carried out using 2 injections of 10 mM glycine pH 2.0 for 30 seconds at 30 μL/min, followed by a 30 second buffer wash step.
The data was fit with the Biacore T200 Evaluation software, using a 1-1 Langmuir binding model. KD (affinity, nM) was determined as a ratio of the kinetic rate constants calculated from the fits of the association and dissociation phases.
For orientation: SPR reads the build-up and loss of mass on a sensor chip optically.

Assay [6] concerns the target T4, rat BCMA on cells (rat).
T4 construct: whole, on cells
Kind of assay: FACS, 293T-ratBCMA cells.

Sequence of cynomolgus BCMA on cells (Q02223 other isoform, or with tags, fused parts or gaps): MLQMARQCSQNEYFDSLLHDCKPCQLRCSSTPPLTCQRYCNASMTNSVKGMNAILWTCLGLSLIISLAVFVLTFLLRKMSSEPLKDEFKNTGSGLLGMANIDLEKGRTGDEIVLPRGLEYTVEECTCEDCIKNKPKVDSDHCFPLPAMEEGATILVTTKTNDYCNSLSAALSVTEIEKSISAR

B1: 2291-D07 (antibody, V domains shown)
VH: EVQLVESGGGLVQPGGSLRLSCAASGFNIKDTYIHWVRQAPGKGLEWVGVISPYDGYTEYADSVKGRFTISADTSKNTAYLQMNSLRAEDTAVYYCAHDFYDRYSTYVLDYWGQGTLVTVSS
VL: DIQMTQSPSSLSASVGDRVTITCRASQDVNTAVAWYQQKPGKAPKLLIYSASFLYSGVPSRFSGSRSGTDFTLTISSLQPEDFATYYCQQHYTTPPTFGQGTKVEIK
notes: also called Antibody 26
As a reminder, the EC50 is the concentration at which the effect is half-maximal. Lower therefore signals higher potency in that assay. By Kd is commonly meant the constant that tells how readily two partners part at equilibrium. A high value points to a looser complex. As a reminder, the koff is a measure of how fast the partners let go of each other. A lower koff goes with a long-lived complex. By kon is commonly meant the rate constant with which the complex forms. In assay [1], B1 had a Bmax of 3.94e+06 and an EC50 of 0.03 nM. In assay [2], this molecule displayed a Bmax of 4.08e+06 and a concentration giving a half-maximal response (EC50) of 0.03 nM. For the same molecule, in assay [3], the Bmax was 28700 MFI and binding was put at a Kd of 3.8 nM. In addition, in assay [4], the Bmax is 67900 MFI and binding was put at a Kd of 0.5 nM. In assay [5], the Kd worked out at 0.948 nM, the koff was found to be 0.000414 s⁻¹ and the kon worked out at 437000 M⁻¹ s⁻¹.

B2: 2291-G05 (antibody, V domains shown)
VH: EVQLVESGGGLVQPGGSLRLSCAASGFNIAAYTIHWVRQAPGKGLEWVGWISPYGGYTEYADSVKGRFTISADTSKNTAYLQMNSLRAEDTAVYYCARDFHDRYATFVLDYWGQGTLVTVSS
VL: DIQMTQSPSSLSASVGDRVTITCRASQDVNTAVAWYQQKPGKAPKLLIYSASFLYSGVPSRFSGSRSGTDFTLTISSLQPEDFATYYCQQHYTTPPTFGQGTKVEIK
notes: also called Antibody 24
In assay [1], B2 yielded a Bmax of 3.38e+06 and an EC50 of 0.09 nM. In addition, in assay [2], the Bmax stood at 3.91e+06 and the midpoint of the response, the EC50, lay at 0.13 nM. In assay [3], this molecule returned a Bmax of 23200 MFI and a Kd of 1.4 nM. In assay [4], the Bmax was 62700 MFI and the Kd was 1 nM. In assay [5], this molecule displayed a Kd of 0.962 nM, a koff of 0.000423 s⁻¹ and a kon of 440000 M⁻¹ s⁻¹.

B3: 2291-F10 (antibody, V domains shown)
VH: EVQLVESGGGLVQPGGSLRLSCAASGFNIDPYTIHWVRQAPGKGLEWVGWISPYDGYTEYADSVKGRFTISADTSKNTAYLQMNSLRAEDTAVYYCARDYYDRYSTYVLDYWGRGTLVTVSS
VL: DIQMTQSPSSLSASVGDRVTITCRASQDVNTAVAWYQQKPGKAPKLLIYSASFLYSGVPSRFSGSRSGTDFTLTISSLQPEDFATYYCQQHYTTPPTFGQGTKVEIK
notes: also called Antibody 27
In assay [1], B3 displayed a Bmax of 3.43e+06 and an EC50 of 0.06 nM. In assay [2], this molecule returned a Bmax of 3.72e+06 and an EC50 of 0.1 nM. In addition, in assay [3], the Bmax was determined as 33800 MFI and the Kd was determined as 5.4 nM. In assay [4], this molecule yielded a Bmax of 66500 MFI and a Kd of 0.7 nM. Moreover, in assay [5], the Kd is 0.178 nM, the koff came to 9.65e-05 s⁻¹ and the kon was found to be 541000 M⁻¹ s⁻¹.

B4: 2291-A01 (antibody, V domains shown)
VH: EVQLVESGGGLVQPGGSLRLSCAASGFNIDPYTIHWARQAPGKGLEWVAHISPYDGYTDYADSVKGRFTISADTSKNTAYLQMNSLRAEDTAVYYCARDFYDRYSTYVLDYWGQGTLVTVSS
VL: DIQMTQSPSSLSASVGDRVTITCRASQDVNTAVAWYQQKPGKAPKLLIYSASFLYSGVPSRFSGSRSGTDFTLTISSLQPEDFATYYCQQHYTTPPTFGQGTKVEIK
notes: also called Antibody 29
Take B4: the Bmax in assay [1] came out at 4.77e+06; in assay [2] it was 5e+06; in assay [3], 32500 MFI; in assay [4], 67200 MFI. In addition, the EC50 is 0.33 nM in assay [1] and 0.39 nM in assay [2]. In addition, the Kd in assay [3] is 4.9 nM; in assay [4], 1 nM; in assay [5] it was 0.0438 nM. In assay [5], this molecule showed a koff of 2.82e-05 s⁻¹. Further, the kon in assay [5] was 644000 M⁻¹ s⁻¹.

B5: 2290-D02 (antibody, V domains shown)
VH: EVQLVESGGGLVQPGGSLRLSCAASGFNISSYWIHWVRQAPGKGLEWMGVITPAAGYTYYADSVKGRFTISADTSKNTAYLQMNSLRAEDTAVYYCARDLGHRYWVGVFDYWGQGTLVTVSS
VL: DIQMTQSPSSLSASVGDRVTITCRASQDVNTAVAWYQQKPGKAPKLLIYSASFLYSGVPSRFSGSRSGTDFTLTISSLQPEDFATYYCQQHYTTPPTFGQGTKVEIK
notes: also called Antibody 18
Take B5: in assay [1], the Bmax was 3.91e+06 and the concentration for a half-maximal effect (EC50) is 0.2 nM. In assay [2], this molecule gave a Bmax of 4.54e+06 and an EC50 of 0.3 nM. In assay [3], this molecule returned a Bmax of 33600 MFI and a Kd of 19.2 nM. In assay [4], this molecule gave a Bmax of 75800 MFI and a Kd of 3.5 nM. In assay [5], this molecule gave a Kd of 0.949 nM, a koff of 0.000277 s⁻¹ and a kon of 292000 M⁻¹ s⁻¹.

B6: 2290-D05 (antibody, V domains shown)
VH: EVQLVESGGGLVQPGGSLRLSCAASGFNIASRWIHWVRQAPGKGLEWVGVITPSAGYTYYADSVKGRFTISADTSKNTAYLQMNSLRAEDTAVYYCARDLGYGYWVGFSDYWGQGTLVTVSS
VL: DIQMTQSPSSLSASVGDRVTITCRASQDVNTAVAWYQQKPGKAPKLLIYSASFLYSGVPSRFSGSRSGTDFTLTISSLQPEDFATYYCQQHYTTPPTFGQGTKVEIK
notes: also called Antibody 20
With B6, the Bmax in assay [1] is 3.61e+06; in assay [2], 3.94e+06; in assay [3], 21800 MFI; in assay [4] it was 57600 MFI. Further, the EC50 in assay [1] amounted to 0.2 nM; in assay [2] it was 0.3 nM. The Kd was 4.6 nM in assay [3], 1.7 nM in assay [4] and 0.937 nM in assay [5]. In assay [5], this molecule gave a koff of 0.000446 s⁻¹. In assay [5], the kon was 476000 M⁻¹ s⁻¹.

B7: 10F4 (antibody, V domains shown)
VH: AVTLDESGGGLQTPGGALSLVCKASGFTFSGYNMGWVRQAPGKGLEYVAGITYGTGSYTAYGAAVKGRATISRDNGQSTLRLQLNNLRAEDTATYYCARGGGLNSYGCSGANIDAWGHGTEVIVSS
VL: ALTQPSSVSANLGGTVKITCSGGGNYFGSYYYGWYQQKAPGSAPVTVIYNNNNRPSDIPSRFSGSTSGSTSTLTISGVRAEDEAVYFCGGFDSSTDAIFGAGTTLTVL
notes: Chicken HybriFree-derived antibody; also called Antibody 37
For B7, the figures for the Bmax in assay [3], in assay [4] and in assay [6] were 18700 MFI, 12800 MFI and 410 MFI, respectively. Moreover, the results for the Kd in assay [3], in assay [4] and in assay [6] were 10.5 nM, 5.94 nM and 5.47 nM, respectively.

B8: 9E12 (antibody, V domains shown)
VH: AVTLDESGGGLQTPGGGLSLVCKASGFTFSDYGLGWMRQAPGKGLEYVARINSAGSGTYYGSAVDGRATISRDNGQSTVRLQLNNLRAEDTGTYYCTRGGGGASIDGWGHGTEVIVSS
VL: ALTQPSSVSANPGETVKITCSGGGSYYGSYYYGWYQQKSPGSAPVTLIYNNNNRPSDIPSRFSGSTSGSTGTLTITGVRAEDEAVYYCGSFDSSTDAIFGAGTTLTVL
notes: Chicken HybriFree-derived antibody; also called Antibody 43
For B8, the Bmax in assay [3] was found to be 8140 MFI; in assay [4], 13200 MFI; in assay [6], 4690 MFI. Moreover, the results for the Kd in assay [3], in assay [4] and in assay [6] were 0.52 nM, 0.34 nM and 2.61 nM, respectively.

B9: 10E10 (antibody, V domains shown)
VH: AVTLDESGGGLQTPGGGLSLVCKASGFTFSSYGMGWMRQAPGKGLEFVARINSGGSSYTDYGSAVKGRATISRDDGQSTVRLQLNNLRAEDTGIYYCTRGGGGASIDGWGHGTEVIVSS
VL: ALTQPSSVSANPGETVKITCSGGGNYAGSYYYGWYQQKSPGSAPLTVIYNSNNRPSDIPSRFSGSLSGSTGTLTITGVRAEDEAVYFCGGFDSSTDAIFGAGTTLTVL
notes: Chicken HybriFree-derived antibody; also called Antibody 46
Regarding B9, the Bmax in assay [3] was found to be 3440 MFI; in assay [4], 4540 MFI; in assay [6], 906 MFI. The Kd amounted to 4.67 nM in assay [3], 18.9 nM in assay [4] and 6.83 nM in assay [6].

B10: 9A5 (antibody, V domains shown)
VH: AVTLDESGGGLQTPGGAVSLVCKASGFSISDYGMGWMRQAPGKGLQYVARIDHDGRYTDYGAVVKGRATISRDNGQSTVRLQLNNLRAEDTGTYYCTRGGGAASIDTWGHGTEVIVSS
VL: ALTQPSSVSANPGETVKITCSGGGNYVGGYYYGWYQQKAPGSALVTLIYNNNNRPSNIPSRFSGSTSGSTSTLTITGVRAEDEAVYFCGSFDSSTDAIFGAGTTLTVL
notes: Chicken HybriFree-derived antibody; also called Antibody 42
Take B10: the Bmax in assay [3] is 19700 MFI; in assay [4], 18200 MFI; in assay [6], 2780 MFI. Besides, the Kd in assay [3] amounted to 1.01 nM; in assay [4] it was 0.64 nM; in assay [6], 7.13 nM.

B11: 9H1 (antibody, V domains shown)
VH: AVTLDESGGGLQTPGGALSLVCKGSGFTFSDYGMGWMRQAPGKGLQYVARINSAGSDTNYGSAVKGRATISRDDGQSTVRLQLSSLRAEDTGIYYCTRGGGGASIDGWGHGTEVIVSS
VL: ALTQPSSVSANPGETVKITCSGGGSYYGSYYYGWYQQKSPGSAPVTLIYNNNNRPSDIPSRFSGSTSGSTGTLTITGVRAEDEAVYYCGSFDSSTDAIFGAGTTLTVL
notes: Chicken HybriFree-derived antibody; also called Antibody 44
For the molecule B11, the Bmax in assay [3] amounted to 6160 MFI; in assay [4], 11400 MFI; in assay [6], 3450 MFI. The equilibrium dissociation constant (Kd) in assay [3] came out at 1 nM; in assay [4], 0.39 nM; in assay [6], 1.32 nM.
